Results taken from publication PMC2891831, “Insight into the Mechanisms of Adenovirus Capsid Disassembly from Studies of Defensin Neutralization” (PLoS Pathogens, 2010).

What was measured:
[1] = biological target: T1, CAR receptor (human (endogenous in A549), UniProt P78310 20-365); assay: flow cytometry on cells; as a6, but the Alexa Fluor 488-labelled Ad5.eGFP was pre-incubated with 20 µM HD5 for 45 min on ice; conditions: one partner purified
T1 construct: source: endogenous, on A549 cells
T1 sequence: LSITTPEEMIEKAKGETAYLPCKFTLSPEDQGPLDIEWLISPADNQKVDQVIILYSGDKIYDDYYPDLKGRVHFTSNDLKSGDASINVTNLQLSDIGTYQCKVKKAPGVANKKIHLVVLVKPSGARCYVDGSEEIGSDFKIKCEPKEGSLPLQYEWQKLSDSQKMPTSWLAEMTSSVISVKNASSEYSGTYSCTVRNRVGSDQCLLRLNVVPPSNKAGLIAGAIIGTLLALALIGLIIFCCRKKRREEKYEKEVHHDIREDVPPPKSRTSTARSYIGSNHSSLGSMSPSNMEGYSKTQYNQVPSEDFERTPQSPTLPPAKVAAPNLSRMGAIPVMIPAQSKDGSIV

[2] = biological target: T1, CAR receptor; assay: flow cytometry on cells; A549 cells in PBS + 0.2% sodium azide incubated with or without 200 nM 5FK or 16FK, 45 min on ice (100 nM in the legend), then combined with Alexa Fluor 488-labelled Ad5.eGFP without defensin (virus pre-incubated with 20 µM HD5-Abu was equivalent to virus alone), 45 min on ice; conditions: one partner purified

B1: recombinant HAdV-5 fiber knob (domain or fragment)
chain: GAITVGNKNNDKLTLWTTPAPSPNCRLNAEKDAKLTLVLTKCGSQILATVSVLAVKGSLAPISGTVQSAHLIIRFDENGVLLNNSFLDPEYWNFRNGDLTEGTAYTNAVGFMPNLSAYPKSHGKTAKSNIVSQVYLNGDKTKPVTLTITLNGTQETGDTTPSAYSMSFSWDWSGHNYINEIFATSSYTFSYIAQE
notes: fiber knob, residues 387-581 of the HAdV-5 fiber; also called 5FK
fold reduction of HAdV-5 binding to cells with 5FK compared to 16FK, virus pre-incubated with HD5 [1]: 1.6 fold | fold reduction of HAdV-5 binding to cells with 5FK compared to 16FK [2]: 5.2 fold
